Paper PMC6090299, “Quantitative Analysis of Interaction Between CADM1 and Its Binding Cell-Surface Proteins Using Surface Plasmon Resonance Imaging” (Frontiers in Cell and Developmental Biology, 2018)

T1: CADM2-Fc (human (by the printed RefSeq entry), UniProt Q8N3J6-1 25-367)
T1 construct: signal peptide in the construct; CADM2 extracellular domain, NP_001161146, 1-367 a.a; Human IgG2-Fc fragment from pFUSE-hIgG2-Fc1; source: FreeStyle 293-F cells, transiently transfected, purified from the supernatant (Protein G Sepharose); not shown: Fc (human IgG2), C-terminal, kept
T1 sequence (looked up): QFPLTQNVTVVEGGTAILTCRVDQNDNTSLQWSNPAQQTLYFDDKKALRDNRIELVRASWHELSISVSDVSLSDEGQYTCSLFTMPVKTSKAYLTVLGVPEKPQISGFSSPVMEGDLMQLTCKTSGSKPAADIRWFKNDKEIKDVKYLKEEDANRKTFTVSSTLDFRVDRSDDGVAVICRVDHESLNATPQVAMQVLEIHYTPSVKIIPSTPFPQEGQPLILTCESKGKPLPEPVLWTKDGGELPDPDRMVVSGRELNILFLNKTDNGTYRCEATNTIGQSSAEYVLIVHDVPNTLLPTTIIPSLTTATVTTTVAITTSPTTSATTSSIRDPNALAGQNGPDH

T2: CADM4-Fc (human (by the printed RefSeq entry))
T2 sequence (Q8NFZ8 whole entry, looked up): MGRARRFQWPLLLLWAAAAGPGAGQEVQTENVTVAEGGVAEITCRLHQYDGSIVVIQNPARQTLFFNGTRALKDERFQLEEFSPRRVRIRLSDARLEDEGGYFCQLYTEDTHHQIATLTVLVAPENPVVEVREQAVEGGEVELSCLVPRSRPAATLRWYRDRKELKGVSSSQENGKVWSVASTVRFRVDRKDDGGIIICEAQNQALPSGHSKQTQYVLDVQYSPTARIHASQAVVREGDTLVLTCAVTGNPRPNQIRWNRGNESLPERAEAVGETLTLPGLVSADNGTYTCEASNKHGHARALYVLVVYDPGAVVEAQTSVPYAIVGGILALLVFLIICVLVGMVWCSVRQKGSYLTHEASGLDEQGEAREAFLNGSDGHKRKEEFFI

B1: CADM1-Fc (Fc fusion, human (by the printed RefSeq entry), UniProt Q9BY67-1 45-374, looked up)
chain: QNLFTKDVTVIEGEVATISCQVNKSDDSVIQLLNPNRQTIYFRDFRPLKDSRFQLLNFSSSELKVSLTNVSISDEGRYFCQLYTDPPQESYTTITVLVPPRNLMIDIQKDTAVEGEEIEVNCTAMASKPATTIRWFKGNTELKGKSEVEEWSDMYTVTSQLMLKVHKEDDGVPVICQVEHPAVTGNLQTQRYLEVQYKPQVHIQMTYPLQGLTREGDALELTCEAIGKPQPVMVTWVRVDDEMPQHAVLSGPNLFINNLNKTDNGTYRCEASNIVGKAHSDYMLYVYDPPTTIPPPTTTTTTTTTTTTTILTIITDSRAGEEGSIRAVDH
notes: signal peptide in the construct; CADM1 extracellular domain, NP_055148, 1-374 a.a; Human IgG2-Fc fragment from pFUSE-hIgG2-Fc1; Glycosylated; also called cell adhesion molecule 1 extracellular domain fused with Fc; source: FreeStyle 293-F cells, transiently transfected, purified from the supernatant (Protein G Sepharose); not shown: Fc (human IgG2), C-terminal, kept

Assays:
[1] = molecular target: B1; assay: SPR; SPR imaging (OpenPlex); the 10 IgSF-Fc proteins (7-24 μM) spotted in hexaplicate and immobilised by amine coupling; 2.4 μM CADM1-Fc injected for 4 min; 25°C; PBS with 0.2% BSA and 0.02% Tween20, 50 μL/min; signal of normal human IgG subtracted; details: both partners purified
[2] = molecular target: the molecule itself; assay: SPR; SPR imaging (OpenPlex); the 10 IgSF-Fc proteins spotted and immobilised by amine coupling; CADM2-Fc, CADM3-Fc or CADM4-Fc injected as analyte; 25°C; PBS with 0.2% BSA and 0.02% Tween20, 50 μL/min
[3] = molecular target: T1, CADM2-Fc; assay: SPR; SPR imaging (OpenPlex); the 10 IgSF-Fc proteins (7-24 μM) spotted in hexaplicate and immobilised by amine coupling; 2.4 μM CADM1-Fc injected for 4 min; 25°C; PBS with 0.2% BSA and 0.02% Tween20, 50 μL/min; signal of normal human IgG subtracted; details: both partners purified
[4] = molecular target: the molecule itself; assay: as above
[5] = molecular target: T2, CADM4-Fc (human (by the printed RefSeq entry)); assay: as above

Row | Kd [1] [nM] | koff [1] [s⁻¹] | kon [1] [M⁻¹ s⁻¹] | Kd [3] [nM] | koff [3] [s⁻¹] | kon [3] [M⁻¹ s⁻¹] | Kd [5] [nM] | koff [5] [s⁻¹] | kon [5] [M⁻¹ s⁻¹] | Binder | binding result [2] | Kd [4] [nM] | koff [4] [s⁻¹] | kon [4] [M⁻¹ s⁻¹]
1 | 80.1 | 0.007 | 84000 |  |  |  |  |  |  | CADM3-Fc (Fc fusion, human (by the printed RefSeq entry), UniProt Q8N126-1 25-330, looked up, signal peptide in the construct; CADM3 extracellular domain, NP_001120645, 1-330 a.a; Human IgG2-Fc fragment from pFUSE-hIgG2-Fc1; source: FreeStyle 293-F cells, transiently transfected, purified from the supernatant (Protein G Sepharose); not shown: Fc (human IgG2), C-terminal, kept) NLSQDDSQPWTSDETVVAGGTVVLKCQVKDHEDSSLQWSNPAQQTLYFGEKRALRDNRIQLVTSTPHELSISISNVALADEGEYTCSIFTMPVRTAKSLVTVLGIPQKPIITGYKSSLREKDTATLNCQSSGSKPAARLTWRKGDQELHGEPTRIQEDPNGKTFTVSSSVTFQVTREDDGASIVCSVNHESLKGADRSTSQRIEVLYTPTAMIRPDPPHPREGQKLLLHCEGRGNPVPQQYLWEKEGSVPPLKMTQESALIFPFLNKSDSGTYGCTATSNMGSYKAYYTLNVNDPSPVPSSSSTYH | binds |  |  | 
2 |  |  |  | 86.8 | 0.0064 | 74000 | 193 | 0.019 | 99000 | B1 |  | 114 | 0.0073 | 64000
